The source of these data is patent US6183967.

Where only a bound is given, the exact number is not on record here.

Holding throughout (test): FP filter
The subject of data set [1] is TZ05 DNA polymerase (Thermus species Z05). Conditions: 55C.
The target of data set [2] is Tth DNA polymerase (Thermus thermophilus) (UniProt P52028).
Data set [3] addresses Taq DNA polymerase (Thermus aquaticus) (UniProt P19821).

Tth DNA polymerase (Thermus thermophilus), sequence (P52028 whole entry): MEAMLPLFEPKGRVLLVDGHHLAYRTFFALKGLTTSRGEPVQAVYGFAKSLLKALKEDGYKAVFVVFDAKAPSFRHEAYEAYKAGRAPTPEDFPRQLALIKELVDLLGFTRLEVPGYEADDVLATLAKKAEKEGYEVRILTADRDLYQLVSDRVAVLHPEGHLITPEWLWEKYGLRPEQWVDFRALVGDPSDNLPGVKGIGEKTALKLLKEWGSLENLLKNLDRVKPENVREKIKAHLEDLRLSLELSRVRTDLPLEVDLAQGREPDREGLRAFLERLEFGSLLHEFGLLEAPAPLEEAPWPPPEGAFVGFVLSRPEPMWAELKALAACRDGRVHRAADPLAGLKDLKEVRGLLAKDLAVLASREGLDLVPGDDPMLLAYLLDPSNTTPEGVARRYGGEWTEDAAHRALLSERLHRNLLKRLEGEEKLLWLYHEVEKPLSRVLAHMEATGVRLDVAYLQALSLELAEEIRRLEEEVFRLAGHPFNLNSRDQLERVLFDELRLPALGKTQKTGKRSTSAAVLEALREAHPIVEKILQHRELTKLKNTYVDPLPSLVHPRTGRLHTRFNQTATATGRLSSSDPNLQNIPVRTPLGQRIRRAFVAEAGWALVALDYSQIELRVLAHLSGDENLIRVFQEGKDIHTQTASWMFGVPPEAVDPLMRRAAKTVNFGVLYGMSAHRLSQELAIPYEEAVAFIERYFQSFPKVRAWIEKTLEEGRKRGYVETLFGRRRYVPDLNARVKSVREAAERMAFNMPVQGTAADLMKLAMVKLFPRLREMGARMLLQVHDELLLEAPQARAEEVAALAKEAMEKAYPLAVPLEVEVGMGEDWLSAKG
Taq DNA polymerase (Thermus aquaticus), sequence (P19821 whole entry): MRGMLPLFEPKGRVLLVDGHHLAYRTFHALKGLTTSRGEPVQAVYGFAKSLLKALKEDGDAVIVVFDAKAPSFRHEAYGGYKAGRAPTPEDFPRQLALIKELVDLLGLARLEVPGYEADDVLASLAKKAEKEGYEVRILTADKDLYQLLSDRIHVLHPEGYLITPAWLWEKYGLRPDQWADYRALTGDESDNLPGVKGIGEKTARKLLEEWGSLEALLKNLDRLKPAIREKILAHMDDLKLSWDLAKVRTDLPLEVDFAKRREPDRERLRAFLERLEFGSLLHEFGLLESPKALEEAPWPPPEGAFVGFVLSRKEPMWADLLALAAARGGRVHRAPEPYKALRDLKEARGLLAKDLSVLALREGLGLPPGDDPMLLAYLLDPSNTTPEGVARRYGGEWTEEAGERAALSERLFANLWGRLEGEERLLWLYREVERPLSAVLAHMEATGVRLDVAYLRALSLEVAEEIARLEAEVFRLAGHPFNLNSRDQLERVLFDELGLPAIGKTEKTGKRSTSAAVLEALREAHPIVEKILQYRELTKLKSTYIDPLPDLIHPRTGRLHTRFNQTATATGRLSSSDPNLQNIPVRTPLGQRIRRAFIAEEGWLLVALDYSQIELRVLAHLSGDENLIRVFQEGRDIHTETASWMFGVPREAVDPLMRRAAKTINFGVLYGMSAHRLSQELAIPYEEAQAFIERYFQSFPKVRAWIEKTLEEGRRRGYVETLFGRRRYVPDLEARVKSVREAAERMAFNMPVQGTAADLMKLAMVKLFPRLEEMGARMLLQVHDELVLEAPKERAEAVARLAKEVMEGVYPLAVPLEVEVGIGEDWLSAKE

For orientation: Kd means the equilibrium constant for the complex coming apart. Regarding “TTCTCGGTTGGTCTCTGGCGGAGCGAAGCATACGAAGACATTCCAACGTTTTGTCTTGTGTATGATTCGCTTTTCCC [TZ54]”, the Kd in data set [1] (IT50 52C) is 0.023 nM.
Turning to “TTCTCGGTTGGTCTCTGGCGGAGCNNNNNNNNNNNNNNNNNNNNNNNNNNNNNNTCTTGTGTATGATTCGCTTTTCCC [random ssDNA pool]”, the Kd in data set [2] (50 mM Bicine pH 8.3, 90 mM KCl, 3.5 mM Mn(OAc)2, room temp) worked out at 70 nM.
“TTCTCGGTTGGTCTCTGGCGGAGCATACACGACGTCATTCTAGCGTTTTGACGTCTTGTGTATGATTCGCTTTTCCC [ligand 22 (TQH22) / TZ3]” gave a Kd in data set [1] (as TZ3, IT50 52C) of 0.009 nM.
For “TTCTCGGTTGGTCTCTGGCGGAGCNNNNNNNNNNNNNNNNNNNNNNNNNNNNNNTCTTGTGTATGATTCGCTTTTCCC [enriched Taq pool round 12]”, the Kd came to 3.5 nM in data set [3] (Taq binding buffer, room temp) and 0.2 nM in data set [2] (cross binding, room temp).
For “TTCTCGGTTGGTCTCTGGCGGAGCGAAGCATACGAAGACATTCCAACGTTTTGTCTTGTGTATGATTCGCTTTTCCC [TZ8]”, the Kd in data set [1] (IT50 52C) is 0.005 nM. That is a picomolar value.
On to “TTCTCGGTTGGTCTCTGGCGGAGCACGTCGGGGGGGCGTTGGGACGGGCAGACGTCTTGTGTATGATTCGCTTTTCCC [TZ13]”, for which the Kd in data set [1] (IT50 58.5C) is 0.017 nM. That is a picomolar value.
Sequence “TTCTCGGTTGGTCTCTGGCGGAGCACGGGAGGGTGTGGAGTGGGTGGCGCGGGCTCTTGTGTATGATTCGCTTTTCCC [TZ36]” displayed a Kd in data set [1] (IT50 51C) of 0.02 nM.
The sequence “TTCTCGGTTGGTCTCTGGCGGAGCACGTCGGGGGGGCCCTGGGGACGGGCAGGCGTCTTGTGTATGATTCGCTTTTCCC [TZ26]” gave a Kd in data set [1] (printed as >>500, IT50 41C) above 0.5 nM.
Sequence “TTCTCGGTTGGTCTCTGGCGGAGCGGATCAGACACGAGACATTGCGGACTTTTGTCTTGTGTATGATTCGCTTTTCCC [TZ9]” came in with a Kd in data set [1] (IT50 52C) of 0.005 nM.
The sequence “TTCTCGGTTGGTCTCTGGCGGAGCGCGAGGGTGTGGCGTGGGTGGCGCGATCTTGTGTATGATTCGCTTTTCCC [TZ2]” displayed a Kd in data set [1] (printed as >>1000, IT50 <<35C) above 1 nM.
As for “TTCTCGGTTGGTCTCTGGCGGAGCNNNNNNNNNNNNNNNNNNNNNNNNNNNNNNTCTTGTGTATGATTCGCTTTTCCC [enriched Tth pool round 10]”, the Kd came to 0.3 nM in data set [3] (cross binding, saturates at about 50%) and 5 nM in data set [2] (Tth binding buffer, room temp).
“TTCTCGGTTGGTCTCTGGCGGAGCACACCGGGGGGGCTGCGGGCAAGGCGGGTGTCTTGTGTATGATTCGCTTTTCCC [TZ1]” gave a Kd in data set [1] (IT50 52.5C) of 0.016 nM.
For the sequence “TTCTCGGTTGGTCTCTGGCGGAGCGAACATACGAAGACATTCCAACGTTTTGTCTTGTGTATGATTCGCTTTTCCC [TZ69]”, the Kd in data set [1] (IT50 46C) worked out at 0.02 nM.
